Test results from IntAct's records for PubMed 12869544.

B1: Translocase of chloroplast 33, chloroplastic (Arabidopsis thaliana (Mouse-ear cress)), O23680 (parent)
chain: MGSLVREWVGFQQFPAATQEKLIEFFGKLKQKDMNSMTVLVLGKGGVGKSSTVNSLIGEQVVRVSPFQAEGLRPVMVSRTMGGFTINIIDTPGLVEAGYVNHQALELIKGFLVNRTIDVLLYVDRLDVYRVDELDKQVVIAITQTFGKEIWCKTLLVLTHAQFSPPDELSYETFSSKRSDSLLKTIRAGSKMRKQEFEDSAIAVVYAENSGRCSKNDKDEKALPNGEAWIPNLVKAITDVATNQRKAIHVDKKMVDGSYSDDKGKKLIPLIIGAQYLIVKMIQGAIRNDIKTSGKPL

Variants of: B1
Conditions: with tc159_arath TOC159, O81283
Sequence of tc159_arath TOC159, O81283 (O81283 whole entry): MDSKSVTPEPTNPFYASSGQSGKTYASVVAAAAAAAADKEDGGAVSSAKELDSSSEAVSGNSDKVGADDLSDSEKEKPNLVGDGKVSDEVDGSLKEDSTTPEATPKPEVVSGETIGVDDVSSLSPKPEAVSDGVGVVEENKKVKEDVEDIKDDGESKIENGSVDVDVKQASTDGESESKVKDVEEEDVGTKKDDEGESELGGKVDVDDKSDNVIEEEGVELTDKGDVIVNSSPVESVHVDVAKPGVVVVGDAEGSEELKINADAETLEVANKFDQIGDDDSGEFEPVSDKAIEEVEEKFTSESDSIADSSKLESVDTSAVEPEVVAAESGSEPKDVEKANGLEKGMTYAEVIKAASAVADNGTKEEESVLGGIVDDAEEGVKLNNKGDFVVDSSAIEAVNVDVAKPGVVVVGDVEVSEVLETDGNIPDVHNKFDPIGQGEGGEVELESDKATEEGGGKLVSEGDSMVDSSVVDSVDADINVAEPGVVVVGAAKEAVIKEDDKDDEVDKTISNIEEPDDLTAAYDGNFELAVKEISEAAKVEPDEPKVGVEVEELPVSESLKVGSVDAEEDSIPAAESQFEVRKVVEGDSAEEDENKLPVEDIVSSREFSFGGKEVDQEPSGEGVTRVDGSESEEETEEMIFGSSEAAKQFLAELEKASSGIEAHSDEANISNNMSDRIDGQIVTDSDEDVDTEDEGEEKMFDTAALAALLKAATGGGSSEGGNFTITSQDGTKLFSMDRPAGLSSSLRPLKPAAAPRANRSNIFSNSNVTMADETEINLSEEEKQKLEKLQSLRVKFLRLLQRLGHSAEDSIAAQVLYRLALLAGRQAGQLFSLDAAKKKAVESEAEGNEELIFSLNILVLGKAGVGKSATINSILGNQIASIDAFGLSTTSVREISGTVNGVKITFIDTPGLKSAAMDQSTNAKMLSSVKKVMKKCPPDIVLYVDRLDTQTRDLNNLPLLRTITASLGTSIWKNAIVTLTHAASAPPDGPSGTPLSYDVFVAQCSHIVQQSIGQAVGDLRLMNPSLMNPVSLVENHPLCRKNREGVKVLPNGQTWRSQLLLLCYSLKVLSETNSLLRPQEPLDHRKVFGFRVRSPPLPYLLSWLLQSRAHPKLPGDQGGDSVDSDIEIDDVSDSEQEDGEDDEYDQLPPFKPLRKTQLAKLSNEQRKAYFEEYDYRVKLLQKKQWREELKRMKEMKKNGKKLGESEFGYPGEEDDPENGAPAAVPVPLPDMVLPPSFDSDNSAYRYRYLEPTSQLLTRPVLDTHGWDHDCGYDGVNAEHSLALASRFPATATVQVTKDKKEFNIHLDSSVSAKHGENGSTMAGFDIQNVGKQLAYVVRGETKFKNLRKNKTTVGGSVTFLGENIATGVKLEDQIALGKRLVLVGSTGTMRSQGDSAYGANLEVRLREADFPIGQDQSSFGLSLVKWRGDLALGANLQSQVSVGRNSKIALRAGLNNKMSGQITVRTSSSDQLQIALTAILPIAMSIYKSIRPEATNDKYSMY

Variant	effect of a mutation on the interaction
R130A	decreasing interaction
